Assay results from the supplement of paper PMC10126150.
± gives the standard deviation of the averaged measurements.

Tested on: ATP
Experiment: switch fluorescence ratio, 500 uM ATP over buffer (Cy3 cluster intensity, sum of 5 cycles each) (fold (ratio)); higher = stronger signal-on switching upon ATP binding; sequences stand for … in TCGTCGGCAGCGTCAGATGTGTATAAGAGACAGTTTTTTTTTTTTTTTTTTTTTTTTT…TC
Conditions: aptamer strand: ATP DNA aptamer (quencher-CACCTGGGGGAGTATTGCGGAGGAAGG + anchor), 100 nM annealed; ATP concentration: 500 uM
Method in brief: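 For every switch-domain sequence, the fluorescence ratio is the mean of per-cluster values, each being summed target-cycle Cy3 intensity over summed buffer-cycle Cy3 intensity. Clusters outside 100-1000 RFU were excluded. On a modified Illumina MiSeq flow-cell, the Cy3-labelled switching-strand clusters were annealed to 100 nM quencher-labelled ATP aptamer, imaged in selection buffer and then after 15 min with 500 uM ATP at 22 °C. Five such cycles were run, with NaOH stripping and re-annealing between them.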
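Also: ATP exposure 15 min at 22 °C before imaging.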

Sequence	switch fluorescence ratio
TGGTACAGGG	1.03 ± 0.018
TTGAGTTTAT	1.02 ± 0.12
GGTAGGAGAT	1.05 ± 0.036
GCTTTTGGGT	1 ± 0.025
TCGGAGGCTT	1 ± 0.027
TGATATCTTG	0.9862 ± 0.0028
TTCGCTTTTT	0.991 ± 0.032
TTTTGGCACG	0.988 ± 0.0014
ACCTTGTATA	0.971 ± 0.022
AGTCCTTATT	0.977 ± 0.021
CCTGTTTGTT	0.967 ± 0.038
CCAGGCTGTT	1.07 ± 0.023
CTCTTTTTTT	0.991 ± 0.014
TGGGGTTAGG	1 ± 0.024
TTAATAAAGG	1.02 ± 0.018
TCATTTTCCG	0.996 ± 0.043
TGGTCAAAGA	0.986 ± 0.015
TGCAAGGGGC	1.04 ± 0.04
AAATTCGCGT	1.01 ± 0.015
CGATACACGT	1.04 ± 0.029
AGTTTGTGGC	0.965 ± 0.012
GTGCTGCCGG	1.01 ± 0.049
GTGTCGTTTG	1 ± 0.032
GGGCAAGCTG	1.04 ± 0.1
GGCTTGAACT	1.05 ± 0.083

Sequence	switch fluorescence ratio
ACTAAACTTG	1.014 ± 0.0022
ATCGGTATAT	1.02 ± 0.039
AGTAACCAAA	1.04 ± 0.097
TTTGTTTAAT	1.002 ± 0.0012
TTGGTTGGAC	1.028 ± 0.0092
AGGAACGGGT	0.9838 ± 0.0027
CACCGGCTTT	1.1 ± 0.14
GCCATAGGAG	0.987 ± 0.031
ACTTAGTGCC	1.087 ± 0.0073
ACTTCCGCGA	1.75 ± 0.11
GAATTTGGAA	1.01 ± 0.022
TCTGAAGATT	0.999 ± 0.016
CTGCGGGCCG	1.004 ± 0.0073
TCGTACTGTG	1.02 ± 0.1
AGATTCAGAA	0.947 ± 0.037
TATAGTTCGG	1.01 ± 0.013
TTTGTAAAGG	0.999 ± 0.013
TACTTGGGC	1.02 ± 0.021
TTAGAGGGTG	1.12 ± 0.018
TCCAGCTAAA	1.09 ± 0.014
TGGGGGAGCT	1.05 ± 0.11
CATTCCGGGA	1.63 ± 0.72
AATCCGGAAC	1.92 ± 0.023
ACGGTATAGT	1.1 ± 0.017
GAAGGGGGG	1.001 ± 0.0094

Sequence	switch fluorescence ratio
CAGTAGGGTC	0.997 ± 0.014
GCTGTAATTT	0.998 ± 0.056
GATACTTCTA	0.972 ± 0.026
TTCAGCTGGG	0.998 ± 0.022
GAGATTCTTG	1 ± 0.02
TGTTTTGTGG	1.02 ± 0.018
TTTAGAGTTC	0.997 ± 0.021
TTTGACAGTA	1.07 ± 0.061
AGATTTATCG	0.9781 ± 0.0027
TTTTAACCCT	0.998 ± 0.013
GTCAGAGAGT	1.02 ± 0.013
AGTCTGCGCG	1.002 ± 0.007
TTTAAAAGAA	0.995 ± 0.039
GATGTACCGC	1.12 ± 0.042
CATTTTTATC	0.992 ± 0.012
TGATTTTCTG	1.008 ± 0.002
GGTTATTTA	0.992 ± 0.035
TTCCGGTGAA	1.0572 ± 0.00078
TTGTAGGGTT	1.02 ± 0.024
GAGGCTGGGG	1 ± 0.038
ACATTAGGGT	1.01 ± 0.012
CCAGGTTATC	1.04 ± 0.032
TTCGGAGGAG	1 ± 0.012
TGGGTTACTT	0.995 ± 0.053
CGGTAAATGT	1.05 ± 0.071

Sequence	switch fluorescence ratio
AGATATTATT	0.9771 ± 0.0015
CGGGTTGGTC	1.05 ± 0.041
CGTTTCGTTG	0.9635 ± 0.0019
GGGATGACCT	1.1 ± 0.044
TAGGAAAGGG	0.997 ± 0.027
GGGACTTATG	1 ± 0.013
CGAACCTGGA	1.37 ± 0.076
CAATCTTTAA	1.02 ± 0.034
AAACGTGGGG	1.01 ± 0.066
AAGGGTCGAT	0.968 ± 0.016
GGGGATGTAC	1.07 ± 0.077
AATTAGGTTG	0.967 ± 0.025
GATAGACGAG	1.03 ± 0.043
ATCCTGGGGT	1.01 ± 0.029
TGTGTCAGCT	0.9981 ± 0.0041
GGTCTAATGG	0.998 ± 0.051
AGGATAGTTG	0.982 ± 0.038
TTTGCTTTCT	1.02 ± 0.023
GGGGAGGGAT	0.996 ± 0.017
GAAATTTATA	1.05 ± 0.04
CAGTAGTTTT	1 ± 0.017
GCCAAACGGG	1.13 ± 0.16
CATCATGTAC	1.33 ± 0.059
TGAAACAGGT	1.001 ± 0.0032
AGATCTGGAG	0.9982 ± 0.0069
